According to patent publication US20230242651A1 (published 2023):
Changes are numbered by the printed parent chain.

Columns and labels:
[1] = molecular target: T1, human interleukin-23 receptor (IL23R) (human, UniProt Q5VWK5 24-355, limits assumed); experiment: SPR, scFv
T1 construct: also called human IL23R
T1 sequence (looked up): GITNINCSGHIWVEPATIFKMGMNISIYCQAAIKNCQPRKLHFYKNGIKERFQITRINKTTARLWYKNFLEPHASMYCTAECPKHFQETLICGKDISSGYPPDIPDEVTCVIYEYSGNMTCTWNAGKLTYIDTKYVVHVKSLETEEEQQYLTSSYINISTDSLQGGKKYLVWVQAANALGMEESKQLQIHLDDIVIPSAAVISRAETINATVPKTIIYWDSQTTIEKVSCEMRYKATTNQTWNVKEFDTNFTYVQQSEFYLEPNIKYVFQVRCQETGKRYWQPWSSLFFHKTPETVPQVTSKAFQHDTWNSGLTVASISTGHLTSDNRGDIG
In short: (§1)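 Humanized rabbit variable domains were made as single-chain variable fragments (scFv) on consensus germline framework pairs, with or without a λ-cap (Vκ framework IV replaced by a Vλ germline sequence). They were expressed in E. coli as inclusion bodies, solubilized and refolded in a generic refolding buffer. Affinity for human IL23R was measured by surface plasmon resonance, giving rate constants and dissociation constant, or the λ-capped over uncapped dissociation-constant ratio.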

[2] = molecular target: T1, human interleukin-23 receptor (IL23R); experiment: SPR, scFv (summary table)
In short: as §1

[3] = molecular target: T1, human interleukin-23 receptor (IL23R); experiment: SPR; KD of the capped scFv over KD of its uncapped counterpart
In short: as §1

[4] = molecular target: T2, human TNF (human, UniProt P01375 77-233); experiment: SPR, scFv
T2 sequence (P01375 77-233 limits assumed): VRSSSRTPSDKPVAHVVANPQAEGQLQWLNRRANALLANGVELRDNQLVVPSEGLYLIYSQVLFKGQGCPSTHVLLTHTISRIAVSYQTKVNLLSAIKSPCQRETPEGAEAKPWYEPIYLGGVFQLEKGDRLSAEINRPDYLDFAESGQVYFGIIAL

[5] = molecular target: T2, human TNF; experiment: SPR, scFv; footnote: interference with SPR measurement

B1: Vκ3/VH2 consensus λ-capped, human IL23R specific scFv (scFv)
scFv: DIVLTQSPATLSLSPGERATLSCQASENIYSFLAWYQQKPGQAPRLLIYSASKLAAGVPARFSGSGSGTDFTLTISSLEPEDFAVYYCQQTNRYSNPDIYNVFGGGTKLTVLGGGGGSGGGGSGGGGSGGGGSQVQLKESGPALVKPTQTLTLTCTFSGIDFNSNYYMCWIRQPPGKALEWLACIYVGSHVNTYYANWAKGRLTISKDTSKNQVVLTMTNMDPVDTATYYCATSGSSVLYFKFWGQGTLVTVSS
notes: scFv VL-linker-VH, made in E. coli; also called Vκ3VH2 capped
[1]
  Kd: 0.0916 nM
  koff: 0.000152 s⁻¹
  kon: 1.66e+06 M⁻¹ s⁻¹
[2]
  Kd: 0.0916 nM
[3]
  Ratio (capped/uncapped) of KD: 0.2

B2: VK1/VH3 consensus λ-capped, TNF-specific scFv (scFv)
scFv: DIQMTQSPSSLSASVGDRVTITCQASQSISDWLAWYQQKPGKAPKLLIYGASRLASGVPSRFSGSGSGTDFTLTISSLQPEDFATYYCQQGWSDSYVDNLFGGGTKLTVLGGGGGSGGGGSGGGGSGGGGSEVQLVESGGGLVQPGGSLRLSCAASGFSLSSGAMSWVRQAPGKGLEWVSVIISSGATYYASWAKGRFTISRDNSKNTLYLQMNSLRAEDTAVYYCARGGPDDSNSMGTFDPWGQGTLVTVSS
notes: also called capped Vκ1/VH3 consensus molecule (TNF CDRs)
[4]
  Kd: 0.225 nM
  koff: 9.41e-05 s⁻¹
  kon: 419000 M⁻¹ s⁻¹

B3: VK1/VH3 consensus uncapped, TNF-specific scFv (scFv)
scFv: B2 scFv with G103Q, L107V, T108E, V109I, L110K, G111R
notes: also called control molecule (Vκ1/VH3 consensus)
[4]
  Kd: 0.265 nM
  koff: 0.000105 s⁻¹
  kon: 395000 M⁻¹ s⁻¹

B4: VK3/VH3 consensus λ-capped, TNF-specific scFv (scFv)
scFv: DIVLTQSPATLSLSPGERATLSCQASQSISDWLAWYQQKPGQAPRLLIYGASRLASGVPARFSGSGSGTDFTLTISSLEPEDFAVYYCQQGWSDSYVDNLFGGGTKLTVLGGGGGSGGGGSGGGGSGGGGSEVQLVESGGGLVQPGGSLRLSCAASGFSLSSGAMSWVRQAPGKGLEWVSVIISSGATYYASWAKGRFTISRDNSKNTLYLQMNSLRAEDTAVYYCARGGPDDSNSMGTFDPWGQGTLVTVSS
[5]
  Kd: 1.82 nM
  koff: 0.000529 s⁻¹
  kon: 290000 M⁻¹ s⁻¹
